The target in data set [1] is T1, His-RecA WT, activated as RecA* (nucleoprotein filament on ssDNA with ATPγS) (E. coli, UniProt P0A7G6 1-353).
T1 construct: RecA, E. coli; source: E. coli ΔrecA BLR(DE3), purified (cobalt resin, ammonium sulfate, heparin); not shown: poly-His, N-terminal, kept
T1 sequence (looked up): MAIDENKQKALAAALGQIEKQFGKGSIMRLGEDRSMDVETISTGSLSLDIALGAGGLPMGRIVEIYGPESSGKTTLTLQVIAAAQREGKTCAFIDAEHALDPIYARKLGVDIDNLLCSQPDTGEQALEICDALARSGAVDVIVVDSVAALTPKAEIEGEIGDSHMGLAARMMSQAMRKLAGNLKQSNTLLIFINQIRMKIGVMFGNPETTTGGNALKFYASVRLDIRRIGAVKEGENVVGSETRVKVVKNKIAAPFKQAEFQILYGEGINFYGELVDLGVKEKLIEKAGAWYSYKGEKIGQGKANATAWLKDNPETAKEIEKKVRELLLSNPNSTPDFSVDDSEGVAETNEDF
The data set can be described thus: fluorescence polarisation; competition, fluorescence anisotropy; unlabeled LexA K156A or QM (140 nM to 18.3 µM) spiked into pre-formed RecA* alongside LexA Q161δ; three-parameter dose-response fit. As to conditions: both partners purified. A general note: Polarisation of emitted light reports the rotation of a fluorescent probe.

Data set [2] concerns the molecule itself. The data set is described as follows: cryo-EM structure; RecA* pre-formed from 5 µM His-RecA WT and 1 µM GGT 90-mer ssDNA in 70 mM Tris-HCl pH 7.5, 150 mM NaCl, 1 mM MgCl2, 2 mM TCEP, 0.25 mM ATPγS, 20 min; LexA K156A added to 25 µM, 30 min, room temperature.

B1: His-LexA K156A (natural protein, E. coli, UniProt P0A7C2 1-202, looked up)
chain: MKALTARQQEVFDLIRDHISQTGMPPTRAEIAQRLGFRSPNAAEEHLKALARKGVIEIVSGASRGIRLLQEEEEGLPLVGRVAAGEPLLAQQHIEGHYQVDPSLFKPNADFLLRVSGMSMKDIGIMDGDLLAVHKTQDVRNGQVVVARIDDEVTVARLKKQGNKVELLPENSEFKPIVVDLRQQSFTIEGLAVGVIRNGDWL
notes: LexA repressor, E. coli; source: E. coli BL21(DE3), purified (cobalt resin, heparin)
For B1, in data set [1], the binding result is given as “binds”.

B2: untagged LexA K156A (full-length, catalytically inactive) (natural protein, E. coli, UniProt P0A7C2 1-202, looked up)
chain: MKALTARQQEVFDLIRDHISQTGMPPTRAEIAQRLGFRSPNAAEEHLKALARKGVIEIVSGASRGIRLLQEEEEGLPLVGRVAAGEPLLAQQHIEGHYQVDPSLFKPNADFLLRVSGMSMKDIGIMDGDLLAVHKTQDVRNGQVVVARIDDEVTVARLKKQGNKVELLPENSEFKPIVVDLRQQSFTIEGLAVGVIRNGDWL
notes: LexA repressor, E. coli; Used for cryo-EM only; source: E. coli BL21(DE3), purified (cobalt resin, heparin; His-tag removed with thrombin); not shown: poly-His, N-terminal, cleaved
Regarding B2, the binding result in data set [2] is “binds”.

B3: LexA quad-mutant (QM): L89P, Q92W, E152A, K156A (natural protein, E. coli, UniProt P0A7C2 1-202, looked up)
chain: MKALTARQQEVFDLIRDHISQTGMPPTRAEIAQRLGFRSPNAAEEHLKALARKGVIEIVSGASRGIRLLQEEEEGLPLVGRVAAGEPLPAQWHIEGHYQVDPSLFKPNADFLLRVSGMSMKDIGIMDGDLLAVHKTQDVRNGQVVVARIDDAVTVARLKKQGNKVELLPENSEFKPIVVDLRQQSFTIEGLAVGVIRNGDWL
notes: LexA repressor, E. coli; also called LexA QM; hyperactive LexA variant; source: E. coli BL21(DE3), purified (cobalt resin, heparin)
Take B3: the “fold weaker binding relative to LexA K156A” value in data set [1] was around 8 fold.
